Tests used:
[1] = target: Trypanosoma brucei multi-aminoacyl-tRNA synthetase complex (MSC)-associated protein 3 (MCP3), wild type (Trypanosoma brucei); assay: ITC; dimer to monomers: 250 uM WT MCP3 in the syringe injected into buffer in the cell (50 mM glycylglycine pH 8.0, 300 mM NaCl, 2 mM DTE); 13 injections of 1 uL, 25°C
[2] = target: Trypanosoma brucei multi-aminoacyl-tRNA synthetase complex (MSC)-associated protein 3 (MCP3), wild type (Trypanosoma brucei); assay: SEC-MALS; 300 ug protein at 3 mg/mL in 100 uL; 30 mM Tris-HCl pH 8.0, 100 mM NaCl, 5 mM MgCl2, 2 mM DTT; incubated at 27°C for 1 h; Superdex 200 Increase 10/300 GL, 0.5 mL/min; no tRNA
[3] = tested on: WT MCP3 (Trypanosoma brucei); assay: ITC; conditions: 1 mM Mg2+; unmodified in vitro transcript; ITC: 20 mM MOPS pH 7.8, 100 mM NaCl, 2 mM DTE, 1 mM MgCl2, 25 C, 30 uM protein in cell, 300 uM tRNA in syringe; SEC-MALS: preincubation 27 C, run at 4 C …
[4] = tested on: ΔN MCP3 (Trypanosoma brucei); assay: ITC; conditions: unmodified in vitro transcript; ITC: 20 mM MOPS pH 7.8, 100 mM NaCl, 2 mM DTE, 1 mM MgCl2, 25 C, 30 uM protein in cell, 300 uM tRNA in syringe; SEC-MALS: preincubation 27 C, run at 4 C …

| Kd [1] [nM] | stoichiometry N [2] | Substance | Kd [3] [nM] | Kd [4] [nM] |
| --- | --- | --- | --- | --- |
| 2600 | 2 | Trypanosoma brucei multi-aminoacyl-tRNA synthetase complex (MSC)-associated protein 3 (MCP3), wild type (enzyme) | – | – |
| – | – | tRNAAla | 1120 | – |
| – | – | tRNAPro | 1050 | 809 |
